Positions count from the first letter of the chain named. Names may count otherwise.
T1: Abl SH2 domain, His-tagged (immobilised for SPR) (human, UniProt P00519-2)
T1 sequence: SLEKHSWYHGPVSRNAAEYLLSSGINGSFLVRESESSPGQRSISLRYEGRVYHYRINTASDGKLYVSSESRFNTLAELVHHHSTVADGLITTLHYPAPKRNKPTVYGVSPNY

B1: HA4 Y36A (designed binder)
chain: GSSVSSVPTKLEVVAATPTSLLISWDAPMSSSSVYAYRITYGETGGNSPVQEFTVPYSSSTATISGLSPGVDYTITVYAWGEDSAGYMFMYSPISINYRTC
B2: HA4 M88A (designed binder)
chain: B1 chain with A36Y, M88A
B3: HA4_(Y87A) (designed binder)
chain: B1 chain with A36Y, Y87A
B4: HA4 W80A (designed binder)
chain: B1 chain with A36Y, W80A

Tests used:
[1] = target: c-Jun phosphopeptide (Homo sapiens) (UniProt P05412); conditions: cited from earlier work
c-Jun phosphopeptide (Homo sapiens), sequence (P05412 whole entry, the tested form may be a part): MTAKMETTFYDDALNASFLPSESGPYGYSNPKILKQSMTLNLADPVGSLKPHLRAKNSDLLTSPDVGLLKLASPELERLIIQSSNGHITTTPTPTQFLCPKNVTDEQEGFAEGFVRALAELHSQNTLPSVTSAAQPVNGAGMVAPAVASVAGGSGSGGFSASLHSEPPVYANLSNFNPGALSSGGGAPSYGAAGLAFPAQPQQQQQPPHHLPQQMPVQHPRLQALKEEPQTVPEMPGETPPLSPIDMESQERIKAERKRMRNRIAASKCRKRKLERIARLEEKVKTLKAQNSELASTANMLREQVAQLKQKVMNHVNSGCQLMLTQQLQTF

[2] = target: Abl SH2 domain, His-tagged (immobilised for SPR) (human) (UniProt P00519); assay: SPR
[3] = target: Abl2 (Arg) SH2 domain spotted on the SH2 microarray (UniProt P42684); assay: peptide or protein array
Abl2 (Arg) SH2 domain spotted on the SH2 microarray, sequence (P42684 173-263): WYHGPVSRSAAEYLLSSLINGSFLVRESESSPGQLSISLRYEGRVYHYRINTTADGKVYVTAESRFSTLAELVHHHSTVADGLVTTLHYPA

[4] = target: Blk SH2 domain spotted on the SH2 microarray (UniProt P51451); assay: peptide or protein array
Blk SH2 domain spotted on the SH2 microarray, sequence (P51451 124-220): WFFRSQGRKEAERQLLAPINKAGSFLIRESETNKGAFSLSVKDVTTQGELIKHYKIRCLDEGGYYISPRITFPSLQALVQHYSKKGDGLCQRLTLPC

[5] = target: tandem SH2 domains of Syk spotted on the SH2 microarray; assay: peptide or protein array
[6] = target: Grb7 SH2 spotted on the SH2 microarray (UniProt Q14451); assay: peptide or protein array
Grb7 SH2 spotted on the SH2 microarray, sequence (Q14451 431-527): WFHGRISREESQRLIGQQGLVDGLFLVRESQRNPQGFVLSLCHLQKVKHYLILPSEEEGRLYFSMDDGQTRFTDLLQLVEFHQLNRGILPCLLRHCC

[7] = target: Abl SH2 domain spotted on the SH2 microarray (human); assay: peptide or protein array
[8] = target: T1, Abl SH2 domain, His-tagged (immobilised …); assay: SPR

Molecule	ΔΔG of binding against HA4 [2]	ΔΔG of binding against HA4 [8]	also measured
Abl SH2 (from UniProt P00519)			Kd [1]: 7000 nM
HA4 E52A (designed binder)	2.4 kcal/mol		
HA4 R38A (designed binder)	2.2 kcal/mol		
HA4 Y35A (designed binder)	0.8 kcal/mol		
monobody HA4 (designed binder)			Kd [2]: 7 nM
monobody HA4 labelled with DyLight 800 (designed binder)			Kd [3]: 18 nM; Kd [4]: 109 nM; Kd [5]: 28 nM; Kd [6]: 169 nM; Kd [7]: 22 nM
B1		≥ 3.8 kcal/mol	
B2		≥ 3.8 kcal/mol	
B3		≥ 3.8 kcal/mol	
B4		≥ 3.8 kcal/mol	

From PMC2926940 (Nature structural & molecular biology, 2010)
